Positions count from the first letter of the chain named. Names and notes keep the numbering of the source.
B1: IgG1-AXL-511: AXL-specific human IgG1,κ antibody, VH SEQ ID NO:136, VL SEQ ID NO:140, Ig2 domain binding (antibody, listed as Homo sapiens, V domains shown)
VH: EVQLLESGGGLVQPGGSLRLSCAASGFTFSSYAMNWVRQAPGKGLEWVSGISGSGGHTYHADSVKGRFTISRDNSKNTLYLQMNSLRAEDTAVYYCAKDRYDILTGYYNLLDYWGQGTLVTVSS
VL: DIQMTQSPSSLSASVGDRVTITCRASQGISSWLAWYQQKPEEAPKSLIYAASSLQSGVPSRFSGSGSGTDFTLTISSLQPEDFATYYCQQYNSYPLTFGGGAKVEIK
B2: IgG1-AXL-726-vcMMAE (conjugate)
VH: QVQLQQWGAGLLKPSETLSLTCAIDGGSFSGYYWSWIRQPPGKGLEWIGEISHSGRTNYNPSLKSRVTISIDTSKNQFSLKLSSVAAADTAVYYCARFITMIRGAIITHFDYWGQGALVTVSS
VL: B1 VL with E42K, N92H, L96Y, G100Q, A102T, V104L
B3: IgG1-AXL-187: AXL-specific human IgG1,κ antibody, VH SEQ ID NO:19, VL SEQ ID NO:20 (antibody, listed as Homo sapiens, V domains shown)
VH: B2 VH with Q3P, I24V, D25Y, Y33H, A86T, R97S, A105T, A117T
VL: B1 VL with E42K, N92H, L96Y, G100Q, A102T, V104L
B4: IgG1-AXL-140: AXL-specific human IgG1,κ antibody, VH SEQ ID NO:3, VL SEQ ID NO:4 (antibody, listed as Homo sapiens, V domains shown)
VH: EVQLLESGGGLVQPGGSLRLSCAASGFTFSSYAMTWVRQAPGKGLEWVSAISISGASTFYADSVKGRFTISRDNSKNTLSLQMNSLRAEDTAVYFCRGYSGYVYDAFDIWGQGTMVTVSS
VL: B1 VL with S31N, E42K, A102T
B5: IgG1-AXL-183: AXL-specific human IgG1,κ antibody, VH SEQ ID NO:16, VL SEQ ID NO:18, FN1 domain binding (antibody, listed as Homo sapiens, V domains shown)
VH: QVQLQQWGAGLLKPSETLSLTCAVYGGSFSGYYWSWIRQPPGKGLEWIGEINQSGSTNYNPSLKSRVTISVDTSKNQFSLKLSSVTAADTSVYYCASGNWDHFFDYWGQGTLVTVSS
VL: DIQMTQSPSSVSASVGDRVTITCRASQGISSWLAWYQHKPGKAPKLLIYATSSLQSGVTSRFSGSGSGTDFTLTISSLQPEDFATYYCQQAKSFPWTFGQGTKVEIK
B6: IgG1-AXL-183-N52Q: point mutant of IgG1-AXL-183, VH SEQ ID NO:17, VL SEQ ID NO:18 (antibody, listed as Homo sapiens, V domains shown)
VH: B5 VH with N52Q
VL: B5 VL
B7: IgG1-AXL-183-vcMMAE (conjugate)
VH: B5 VH
VL: B5 VL
B8: IgG1-AXL-733: AXL-specific human IgG1,κ antibody, VH SEQ ID NO:34, VL SEQ ID NO:35, FN1 domain binding (antibody, listed as Homo sapiens, V domains shown)
VH: QVQLVESGGGVVQPGRSLRLSCAASGFSFSTYAMHWVRQAPGKGLEWVAVISYDGDNKYSADSVKGRFTISRDNSKNTLYLQMNSLRAEDTAVYYCARGRKLGIDAFDIWGQGTMVTVSS
VL: AIQLTQSPSSLSASVGDRVTITCRASQGISSALAWYQQKPGKAPKLLIYDASSLESGVPSRFSGSGSGTDFTLTISGLQPEDFATYYCQQFNSYPFTFGPGTKVDIK

Experiments:
[1] = biological target: T1, AXLECDHis (extracellular domain of human AXL) (Homo sapiens, UniProt P30530); experiment: Binding affinity by Bio-Layer Interferometry (ForteBio OctetRED384); settings: 1:1 model, 30° C.
T1 construct: the extracellular domain (ECD) of human AXL (aa 1-447) with a C-terminal His tag (AXLECDHis); His tag (C); made in house; host or cells: HEK-293F

AXL on A431 cells = biological target: T2, AXL on A431 cells (Homo sapiens, UniProt P30530); experiment: Antibody binding to A431 cells with or without Gas6 pre-incubation; settings: for Antibody binding to A431 cells: EC50 in presence of Gas6 (µg/mL) mean (s.d.) / Antibody binding to A431 cells: Maximal binding in presence of Gas6 (% of binding in absence of Gas6) mean (s.d.): pre-incubation with 10 µg/mL Gas6; for Antibody binding to A431 cells: EC50 w/o Gas6 (µg/mL) mean (s.d.): without Gas6 pre-incubation
T2 construct: AXL-positive A431 cells were incubated; endogenous in cells; host or cells: A431

[2] = biological target: T3, Gas6 binding to AXL on A431 cells (Homo sapiens, UniProt P30530); experiment: Gas6 binding to A431 cells pre-incubated with AXL antibodies; settings: pre-incubation with 10 µg/mL antibody; control antibody b12
T3 construct: endogenous in cells; host or cells: A431
Procedure: Alternatively, A431 cells were pre-incubated with 10 µg/mL AXL antibodies (15 minutes, 4° C.) to assess if the AXL ligand Gas6 could still bind in presence of AXL antibodies. […] After washing three times in PBS/0.1% BSA/0.02% azide, cells were incubated with mouse anti-Gas6 IgG2a (R&D Systems; cat no. MAB885) at 4° C. for 30 min. After washing three times in PBS/0.1% BSA/0.02% azide, cells were incubated with FITC-labelled goat anti-mouse IgG (Dako, Heverlee, Belgium; cat no. F049702) at 4° C. for 30 min in the dark. Next, cells were washed twice in PBS/0.1% BSA/0.02% azide, resuspended in 120 µL PBS/0.1% BSA/0.02% azide and analyzed on a FACS Cantoll (BD Biosciences).
(§1) Binding curves were analyzed using non-linear regression (sigmoidal dose-response with variable slope) using GraphPad Prism V5.04 software (GraphPad Software, San Diego, CA, USA).
Therefore, binding of Gas6 to A431 cells that had been pre-incubated with 10 µg/mL AXL antibodies was tested as described in Example 2.

[3] = tested on: LCLC-103H xenograft tumors; experiment: LCLC-103H xenograft model; type: in vivo, SCID mice; settings: 3 mg/kg (Example 13, FIG. 14A)
Procedure: 5 × 10^6 LCLC-103H (large cell lung carcinoma) tumor cells (obtained from Leibniz-Institut DSMZ-Deutsche Sammlung von Mikroorganismen und Zellkulturen GmbH (DSMZ)) in 200 µL PBS were injected subcutaneously in the right flank of female SCID mice. Starting 14-21 days after tumor cell inoculation, when the average tumor size was >100-200 mm^3 and distinct tumor growth was observed, a single injection with 1 mg/kg (20 µg/mouse) IgG1-AXL-vcMMAE antibodies (as described in Supplementary Example 1) or control (unconjugated IgG1-b12) was given intraperitoneally (100 µL/mouse). Tumor volume was determined at least two times per week. Tumor volumes (mm^3) were calculated from caliper (PLEXX) measurements as: 0.52 × (length) × (width)^2.
(§2) Tumor induction was performed by subcutaneous injection of 5 × 10^6 A431 or LCLC-103H tumor cells (both obtained from Leibniz-Institut - Deutsche Sammlung von Mikroorganismen und Zellkulturen GmbH (DSMZ)) in 200 µL PBS in the right flank of female SCID mice. Treatment was started 14-21 days after tumor cell inoculation, when the average tumor size was >100-200 mm^3 and distinct tumor growth was observed. Mice received a single injection or a total of 4 biweekly intraperitoneal injections with IgG1-AXL-vcMMAE ADCs or control antibody (unconjugated IgG1-b12), as indicated. Tumor volume was determined at least two times per week. Tumor volumes (mm^3) were calculated from caliper (PLEXX) measurements as: 0.52 × (length) × (width)^2.

A431 tumors = experiment: A431 xenograft model (high Gas6); type: in vivo, SCID mice; settings: 3 mg/kg
Procedure: as §2

[4] = biological target: T4, human AXL transiently expressed by HEK-293F cells (Homo sapiens, UniProt P30530); experiment: Homogeneous antigen specific screening assay (FMAT); type: binding
T4 construct: TH1021-AXL (HEK-293F cells transiently expressing full length human AXL; produced as described above); expressed in transfected cells; host or cells: HEK-293F

full length human AXL = biological target: T5, full length human AXL (Homo sapiens, UniProt P30530); experiment: Flow cytometry binding to transfected HEK293T cells; settings: at least 3 experiments
T5 construct: expression constructs for full length human AXL; expressed in transfected cells; host or cells: HEK293T
Procedure: HEK293T cells were transiently transfected with expression constructs for full length human AXL, human AXL with a cynomolgus monkey extracellular domain (ECD) or human AXL with a mouse ECD (see Example 1). Binding of HuMab-AXL antibodies to these cells was evaluated by flow cytometry. Transfected HEK293 cells were incubated with serial dilutions of AXL-antibodies (final concentration range 0.0024-10 µg/mL) for 30 minutes at 4° C. […] Next, cells were washed twice in PBS/0.1% BSA/0.02% azide, resuspended in 120 µL PBS/0.1% BSA/0.02% azide and analyzed on a FACS Cantoll (BD Biosciences).
as §1

[5] = biological target: T6, human AXL with a cynomolgus monkey extracellular domain (ECD) (Homo sapiens, UniProt P30530, P441T/S191N/S285L/T105A/T112A/T125N/T443A); experiment: as above; settings: at least 3 experiments
T6 construct: aa 1-447); human AXL transmembrane and intracellular part (the remainder of human AXL after the ECD; expressed in transfected cells; host or cells: HEK293T

[6] = biological target: T7, human-mouse chimeric AXL mutants (Homo sapiens, UniProt P30530, A273L/A287V/A310S/E275K/E281D/G297E/H300L/L233V/M269V/N230H/P276S/P329T/Q227R/Q272W/R229H/S285L/S298K/S319P/T259N/T312S/V309I); experiment: AXL domain specificity using human-mouse AXL chimeric molecules (flow cytometry); type: binding; settings: 1 µg/mL antibody
T7 construct: constructs for expression of various full-length AXL variants were generated; expressed in transfected cells; host or cells: HEK293F

Molecule | Binding affinity (OCTET) Kdis [1] [s⁻¹] | Binding affinity (OCTET) Kon [1] [M⁻¹ s⁻¹] | Antibody binding to A431 cells: EC50 in presence of Gas6 (µg/mL) mean (s.d.) (AXL on A431 cells) | Antibody binding to A431 cells: Maximal binding in presence of Gas6 (% of binding in absence of Gas6) mean (s.d.) (AXL on A431 cells) | Antibody binding to A431 cells: EC50 w/o Gas6 (µg/mL) mean (s.d.) (AXL on A431 cells) | Gas6 binding to A431 cells: Maximal binding in presence of AXL antibodies (% of binding in presence of control antibody) mean (s.d.) [2] | Binding EC50 (µg/mL) human AXL Average (s.d.) (full length human AXL) | Binding EC50 (µg/mL) cynomolgus AXL Average (s.d.) [5] | other results
B1 | 0.0039 | 170000 | 0.30 (0.31) µg/mL | 93 (15) % | 0.12 (0.11) µg/mL | 113 (6) % | – | – | –
B2 | – | – | – | – | – | – | – | – | anti-tumor activity in the LCLC-103H xenograft model [3]: tumor regression; anti-tumor activity in the A431 xenograft model (A431 tumors): growth inhibition
B3 | – | – | – | – | – | – | – | – | Maximal binding (Arbitrary units) [4]: 2563 Arbitrary units
B4 | – | – | – | – | – | – | – | – | Maximal binding (Arbitrary units) [4]: 2889 Arbitrary units
B5 | 0.00042 | – | 1.19 (1.11) µg/mL | 90 (19) % | 0.69 (0.72) µg/mL | 115 (8) % | 0.526 (0.177) µg/mL | 0.309 (0.086) µg/mL | binding to hsAXL-mmFN1 [6]: reduced binding
B6 | 0.001 | 42000 | – | – | – | – | 0.350 (0.206) µg/mL | 0.324 (0.121) µg/mL | –
B7 | – | – | – | – | – | – | – | – | anti-tumor activity in the LCLC-103H xenograft model [3]: tumor regression; anti-tumor activity in the A431 xenograft model (A431 tumors): growth inhibition
B8 | 0.0097 | 160000 | 0.62 (0.23) µg/mL | 93 (5) % | 0.49 (0.51) µg/mL | 96 (5) % | 0.176 (0.094) µg/mL | 0.254 (0.114) µg/mL | binding to hsAXL-mmFN1 [6]: reduced binding
